Assay: soluble on expression in E. coli; label from the status in PepcDB or PDB records

Row | Sequence | soluble on expression in E. coli
1 | MQIKAGLIWMNGAFVPQEEAKTSVLSHALHYGTSVFEGIRAYETAKGPAIFRLKEHVKRFYNSAKVLRMEIPFAPEELEEAIKEVVRRNGYRSCYIRPLAWMGAKALGVNPLPNNPAEVMVAAWEWGAYLGEEAVRKGARLITSSWARFPANVMPGKAKVGGNYVNSALAKMEAVAAGADEALLLDEEGYVAEGSGENLFFVRDGVIYALEHSVNLEGITRDSVIRIAKDLGYEVQVVRATRDQLYMADEVFMTGTAAEVTPVSMIDWRPIGKGTAGPVALRLREVYLEAVTGRRPEYEGWLTYVNGQ | soluble
2 | MGSDKIHHHHHHMRKLALPLVAFLTGGLAACSSSDVVESQGITVENCGSVVNFDSPPSHIALMKSAAVPTLDALGVLDRVVTKAGAFPAGYYDADLSERVTDIPTLSNKIDASGHVLISKEVVVAANPDIVFGETDTINRASMASSNIPVVEEPAFCGSIDGDVSFDDVWSQISTYGTIFDRSTEADAYIATLKERVSEVSSRVTDSGKTVAVLYPTIGGGVTYAYGRGSMANPLVAEAGLTNVFADQSERVFEVTAEELISRNPDYIIVLHSDGSPSDIVAEVGNLQGSSALTALSENKVLPILMNFAEPPTPLAVDGLEKIIDFVETHP | not soluble
3 | FSNAPISAEEQMIRAFVKSVEYMSPRKIGALVAIQRVRTLQEYISTGIPLDAKISAELLINIFIPNTPLHDGAVIIKEERIAVTSAYLPLTKNTGISKEFGTRHRAAIGLSEVSDALTFVVSEETGGISITYNGRFKHNL | not soluble
4 | MVKFTTFLCIIALLLCSTLTHASARLNPTSVYPEENSFKKLEQGEVICEGVGEEECFLIRRTLVAHTDYIYTQNHNP | soluble
5 | LQFAYKDPEKNWNRNSVKGLVASLINVKDNSTATALEVVAGERLYNVVVDTEVTAKKLLEKGELKRRYTIIPLNKISARCIAPETLRVAQNLVGPDNVHVALSLVDYKPELQKGMEFVFGTTFVCNNMDNAKKVAFDKRIMTRTVTLGGDVFDPHGTLSGG | soluble
6 | MAGEILVIGGGISGLTAAIEAAETGYDVILLEKNPYLGGRVSQLNKYFPKLCPPFCGLEILFKRMKSTPKLKYFTNAEVQEISGESGNFTVKVKLKPRYVNENCTACGACKEVCPIEAPDEYNFGLKKKKAIDLPNIMAMPFQYYIDDKYCNKCGECVSACKYNAIDLNEEEREMTLNVSSIIVATGWKPYDATKLDNLGYGKYKNVITNMEMERLASPNGPTGGVIQTMDGKPIETIAFVQCAGSRDENHLPYCSAICCLASLKQATYVREQYPDAKIYIFYIDIRAFGRYEDFFAKVKADEKIELIKGKVAKVEEVDGKLVVTAEDTLTGVKSKKEVDMVVLATGMQPAIEPIPGLELDEYGFVKPKPGIIPVGVAAMPMEVASANETATAAALKAIQLARRLEHHHHHH | soluble
7 | MGHHHHHHSHEHCAIILEDDRSDISSTCANNINHNTELLPIELDTLVGKGRFAEVYKAKLKQNTSEQFETVAVKIFPYEEYASWKTEKDIFSDINLKHENILQFLTAEERKTELGKQYWLITAFHAKGNLQEYLTRHVISWEDLRKLGSSLARGIAHLHSDHTPCGRPKMPIVHRDLKSSNILVKNDLTCCLCDFGLSLRLDPTLSVDDLANSGQVGTARYMAPEVLESRMNLENAESFKQTDVYSMALVLWEMTSRCNAVGEVKDYEPPFGSKVREHPCVESMKDNVLRDRGRPEIPSFWLNHQGIQMVCETLTECWDHDPEARLTAQCVAERFSELEHLDRLSGRSCSEEKIPEDGSLNTTK | not soluble
8 | MAHHHHHHMSSVLKADVKEYIPSWANKRSSGVNPAATSTNKNGFATSVPTSNVMTTHSGCTGINAQNFTSSPRAAAGLPLCSPTTALRLPTRMSPMHAPFPSVSISMNPNATDFVPHLTGANSLAPLPTSTADLAEEKERQQKQESHLSSSMKWTTTSTRKNITQPALPLAVKANFTPTFAPIYVEKTEEEILEISKRSSLKVGAAAFVPRRTLNRVMIAKPSPFSLTPATGEMTLGDLWCLFYLPAGLGECIRENTYDPTLVFRVDSVATFWKVFNNIPQPTEMKIGTLYFFRDGINPKWEDPGNRDGGILKMKLDSHCINDAWVYLLCRTIGESWSKSVRDTVNGVALKARERAYLLEVWVTEQSAELMMDISELLRPLLGDVFSVFYAPHSVTQERAAAAALAEKKRSRNNRRRW | not soluble
9 | SMQPIVIHSSGKNYGFTIRAIRVYVGDSDIYTVHHIVWNVEEGSPACQAGLKAGDLITHINGEPVHGLVHTEVIELLLKSGNKVSITTTPFENTETSV | soluble
10 | MFELDLRSRQPIYEQLIDKMKEMIVRELWQPHDQLPSVRTMAKQLMINPNTIQKAYRELERDGWIYSIPGKGSFVAPRSKEPNIEAIAAVREQFVRLVKEARFLGVTNEQLWQWIREGEERGGES | not soluble
11 | MVPSNAESQSVVVIGAGIGGLTTAALLAQQGYRVKVYEQAAIVGGCASTFRRRGFIFDVGATQVAGLEPGGIHHRIFRQLQVDLPEATLCDPACAVFLPGEKQPINVWHDPERWQREREQQFPGSGRFWQLLQTLFQISWRFQGRDPVLPPRSMWDLGQLLGALRPDTLLTAPFVPLTVGDTLRLLGLGSDQRLKTFLDLQLKLYSQVGADETALLYAATALSVSQGPQGLWHLQGSMQTLGDRLVEALKNHGGELFCSQRVEQIHCGQGYVEGVTVRDVRSGEVRQEKAQQVVANLTVQNLLQALDQPLPGYQKRVTNLPSGSGAFVIYLGVKEDAIPPDCAPHLQFLYDHQGPIGENNSLFVSVSKPGDGRAPRGCRTVIASSFTDVAPWWNASREQYQALKESYTTTAISRLGEYFNLDESTIVHQESATPRTFDRYTARDQGIVGGVGQRLTTFGPFGFAPRTPIRNLWLVGDSVHPGEGTAGVSYSALTIARQICASGATNSLEHHHHHH | not soluble
12 | MGHHHHHHSHMVAHNQVAADNAVSTAAEPRRRPEPSSSSSSSPAAPARPRPCPAVPAPAPGDTHFRTFRSHADYRRITRASALLDACGFYWGPLSVHGAHERLRAEPVGTFLVRDSRQRNCFFALSVKMASGPTSIRVHFQAGRFHLDGSRESFDCLFELLEHYVAAPRRMLGAPLRQRRVRPLQELCRQRIVATVGRENLARIPLNPVLRDYLSSFPFQI | not soluble
13 | MNFNTILEEILIKRSQQKKKTSPLNYKERLFVLTKSVLSYYEGRAEKKYRKGVIDISKIKCVEIVKNDDGVIPCQNKFPFQVVHDANTLYIFAPSPQSRDRWVKKLKEEIKNNNNIMIKYHPKFWADGSYQCCRQTEKLAPGCEKYNLFESSIRKTLPPAPEIKKRRPPPPIPPEEENTEEIVVAMYDFQATEAHDLRLERGQEYIILEKNDLHWWRARDKYGSEGYIPSNYVTGKKSNNLDQYEWYCRNTNRSKAEQLLRTEDKEGGFMVRDSSQPGLYTVSLYTKFGGEGSSGFRHYHIKETATSPKKYYLAEKHAFGSIPEIIEYHKHNAAGLVTRLRYPVSTKGKNAPTTAGFSYDKWEINPSELTFMRELGSGLFGVVRLGKWRAQYKVAIKAIREGAMCEEDFIEEAKVMMKLTHPKLVQLYGVCTQQKPIYIVTEFMERGCLLNFLRQRQGHFSRDMLLSMCQDVCEGMEYLERNSFIHRDLAARNCLVNEAGVVKVSDFGMARYVLDDQYTSSSGAKFPVKWCPPEVFNYSRFSSKSDVWSFGVLMWEIFTEGRMPFEKNTNYEVVTMVTRGHRLHRPKLASKYLYEVMLRCWQERPEGRPSFEDLLRTIDELVECEETFGR | soluble
14 | LTFSLNFATSSKDSYGTGWLIDWKGDENKPSNTDPFLIYLATNLHVVDALRNPQDYEPYNKDSNGQDYGNRDITHFFALGKYTDPGLLGVETKE | soluble
15 | MVDLGSDRLPVAVIGAGPVGLAAAAHLAERSVPFVVLEAGDAAATAVQAWSHIQLFSPWEFNTDPAARRLLAAAGWEEPDASALPTGGDLVKQYLQPLAELPALASHIRYGAEVTAISRLGIDRLRTADRDAAPFVLRLADGEEVLARAVIDASGTWRQPNHVGANGLPAHGEKDAAAWINHGLPDVFGADRDQHAGRHTVVVGAGHSAANTLLALAELADTAPGTTITWAIRGADPAASFGGGSDDELPARGAIGSGLKMLVETGRVTLAANFRTHAVRRLGDDPSRDQVELVSRALDGTERSVTADRVVAATGFRPDYRIVDELRLELDPIMSAPRALAPLIDPNQHSCGTVTPHGYRELAHPEPGYYAVGMKSYGRAPTFLMLTGYEQVRSIAAALAGDLEAAQSVELQLPETGVCSVTAGGEALALRLGLTKDQHEQLLHVTAKHLGTSATASDAVLSAATELGIDQTAALQLAAYAADMFDAPGAPGCLEHHHHHH | not soluble
16 | MGSDKIHHHHHHMIEFKEVSKRFGSTLALDKLDANFPTGKIIGLFGPNGAGKSTSIKMIAGLNRPDQGQVVIDGELPRMSKAQIAYLPEIDHLYPWMTIGQAAGFTRSFYVDWDNDKYHELLKYLNLNAEMKIGKISKGQRAKTKLLLTAARRAPYLLMDEPLSGIDILTREEIINTLVRDYREGEQTIIISTHEIAEVESLVDEVFFIDQGKIMLSGSAEEFRVERGQSLVEIMKEAFRHADQ | not soluble
17 | MGSDKIHHHHHHMSANRLPVTVVTGFLGSGKTTLLRHLLREGNQRLAVVVNEFGTVGLDGDLLKNCGLCPDDEVDERIVELNNGCLCCTVQEDFLPAMEALLLRSNQLDGIIIETSGLALPKPLLQALNWPAIRNKVFINGVVTLVDGYALSNGSPVSDLKSINEQMTNDNSIDHITPIDELFRDQLISADLVLVSRSDLLSAKDFLFVEEEVKKRGNSNANVLPISNGIIEPSVILGLCKEQNNIYRLDQNNQNQNQNQNHDHDHDHDHDHDHVDVISDHLRMETPIDQDVLREMFLRLVPEYQILRVKGKCWIEGKALPLQIQMVGPRFNSWFEAANENAWQPRQSGIDIVFLSLREGVKEAVVNSLCISTRIK | not soluble
18 | SYLGSEFDNVELKDLANVLSFGEAKLGDNGQKFNFLFHTASSNVWVPSIKCTSESCESKNHYDSSKSKTYEKDDTPVKLTSKAGTISGIFSKDLVTIGKLSVPYKFIEMTEIVGFEPFYSESDVDGVFGLGWKDLSIGSIDPYIVELKTQNKIEQAVYSIYLPPENKNKGYLTIGGIEERFFDGPLNYEKLNHDLMWQVDLDVHFGNVSSKKANVILDSATSVITVPTEFFNQFVESASVFKVPFLSLYVTTCGNTKLPTLEYRSPNKVYTLEPKQYLEPLENIFSALCMLNIVPIDLEKNTFVLGDPFMRKYFTVYDYDNHTVGFALAKNL | soluble
19 | MSLKEDFDLKTHIESSGHGVDTCLHVVLSSKVCRGYLVKMGGKIKSWKKRWFVFDRLKRTLSYYVDKHETKLKGVIYFQAIEEVYYDHLRSAAKKRFFRFTMVTESPNPALTFCVKTHDRLYYMVAPSAEAMRIWMDVIVTGAEGYTQFMNEGHHHHHH | not soluble
20 | NCCVKGNSIYPQKTSTKQTGLMLDIARHFYSPEVIKSFIDTISLSGGNFLHLHFSDHENYAIESHLLNQRAENAVQGKDGIYINPYTGKPFLSYRQLDDIKAYAKAKGIELIPELDSPNHMTAIFKLVQKDRGVKYLQGLKSRQVDDEIDITNADSITFMQSLMSEVIDIFGDTSQHFHIGGDEFGYSVESNHEFITYANKLSYFLEKKGLKTRMWNDGLIKNTFEQINPNIEITYWSYDGDTQDKNEAAERRDMRVSLPELLAKGFTVLNYNSYYLYIVPKASPTFSQDAAFAAKDVIKNWDLGVWDGRNTKNRVQNTHEIAGAALSIWGEDAKALKDETIQKNTKSLLEAVIHKTNGDEHHHHHH | soluble
21 | MSLDKSIPVPEPSRMITGIKVHKISDVITYQGMISLTYDNNKRLTRIYSSSPLAAVNYTYKENSEVSYTYSTENSPLVEISTSLENGRSYVCKFSNRENPVTYSYDNEGYLKSCNNNGTVLEYNWESGNLSSITTTPRGTYNSDYRVSNIANDYSLDLNTLAQWIDDRENYTTVMNTFGQMAEILGKRSANILEDTYYIYDYSFRQDGRLKDMTLMGGSENIGYSFRFSYADDTEVSEGHHHHHH | soluble

Reference: the DeepSol protein solubility set
